The source of these data is patent publication US7939057B2, “Methods and compositions for modulating the mobilization of stem cells” (Mount Sinai School of Medicine, priority 2006, dated 2011).

The subject of test [1] is hematopoietic stem and progenitor cells (HSPCs). Nature of the test: G-CSF-induced mobilization of hematopoietic progenitors (circulating CFU-C). Type of test: in vivo, mice. The procedure:
To induce HSPC mobilization, mice were injected with recombinant human G-CSF (Filgrastim, Amgen, Thousand Oaks, Calif., 250 μg/kg/day, every 12 hours, 8 divided doses, s.c.) in PBS supplemented with 0.1% endotoxin free bovine serum albumin (BSA) or fucoidan (Sigma; 2 doses of 100 mg/kg with 2 h interval, i.p.) in PBS. Blood was harvested 3 h (G-CSF) or 1 h (fucoidan). CFU-C assays were carried out as previously described (Katayama, Y., and Frenette, P. S. (2003). Galactocerebrosides are required postnatally for stromal-dependent bone marrow lymphopoiesis. Immunity 18, 789-800).
A chronic guide cannula (1.0 mm) was implanted stereotaxically into the lateral ventricle (coordinates AP, −0.7 mm; DV, −2.4 mm; ML, 1.5 mm, from bregma). One week after implantation, mice received a reduced dose of G-CSF (25 μg/kg daily for 4 doses) either by ICV infusion (rate: 0.4 μL/min) or by s.c. injection.
Newborn C57BL/6 mice were injected s.c. with 6OHDA (100 mg/kg, Sigma) or vehicle (saline) on postnatal days 2, 4, 6, 8 and 9. HSPC mobilization was induced at 3 weeks of age. For SNS disruption in adult C57BL6 mice, 4 week-old animals were injected i.p. with 2 doses of 6OHDA or vehicle, 100 mg/kg on day 0, 250 mg/kg on day 2, and G-CSF treatment was begun on day 5. For β-adrenergic receptor blockade, 4 week-old C57BL/6 mice were treated with propranolol (0.5 g/L in drinking water, Sigma) or control pure water for 3 weeks prior to mobilization. For rescue experiments, clenbuterol (2 mg/kg/day, i.p.) was injected starting day −2 prior to and continued during G-CSF treatment.

The subject of a further test is bone lining osteoblasts. The test is described as follows: Morphology of bone lining osteoblasts (CD44 immunofluorescence). The format is in vivo. The conditions noted are these: G-CSF-treated wild-type C57BL/6 mice. The procedure: For the morphology of bone lining osteoblasts, femoral bones were fixed overnight in formalin, decalcified in 10% EDTA (pH 7.4) for 48 h, snap-frozen in isopentane chilled in liquid nitrogen, and sectioned at 10 μm thickness. Sections were fixed with 4% parafolmaldehyde for 20 min, stained with anti-CD44 (KM201) followed by donkey Alexa-488-anti-rat IgG (Molecular Probes, Eugene, Oreg.), and mounted in Vectashield Mounting Medium with DAPI (Vector Laboratories). TUNEL assay was done using an In Situ Cell Death Detection Kit (Roche Applied Science, Penzberg, Germany) according to manufacturer's recommendation. Images were captured and analyzed with Olympus BX61WI (Hauppauge, N.Y.) with 60× objective mounted on a motorized X, Y stage and a Z focusing drive (Applied Scientific Instrumentation, Eugene, Oreg.). Images are collected with Coolsnap HQ digital camera (Ropert Scientific, Munich, Germany). A Dell workstation with SlideBook software (Intelligent Imaging Innovations, Denver, Colo.) provided for synchronization of components, data acquisition and image deconvolution.

B1: G-CSF: recombinant human G-CSF (Filgrastim, Amgen), hematopoietic cytokine used to elicit HSPC mobilization (protein, UniProt P09919 31-207, looked up)
Granulocyte …: TPLGPASSLPQSFLLKCLEQVRKIQGDGAALQEKLVSECATYKLCHPEELVLLGHSLGIPWAPLSSCPSQALQLAGCLSQLHSGLFLYQGLLQALEGISPELGPTLDTLQLDVADFATTIWQQMEELGMAPALQPTQGAMPAFASAFQRRAGGVLVASHLQSFLEVSYRVLRHLAQP
modifications: filgrastim
notes: recombinant human G-CSF (Filgrastim, Amgen), hematopoietic cytokine used to elicit HSPC mobilization
As for B1, the “HSPC mobilization by route of G-CSF” value in test [1] (C57BL/6 mice, ICV infusion vs s.c. injection, 25 μg/kg daily for 4 doses) is given as “robust HSPC mobilization occurred only when mice were treated systemically”. In test [1] (CD45.1 wild-type mice reconstituted with Cgt+/+ or −/− BM), the “G-CSF-induced mobilization in chimeric mice” value is on record as “similar”. The “G-CSF-induced mobilization of HSPCs” value in test [1] (Cgt−/− mice compared to Cgt+/− or +/+ littermates) is given as “little mobilization”. Also, the “G-CSF-triggered mobilization of CFU-Cs and Lin-Sca-1+c-kit+ cells” value in test [1] (Dbh−/− compared to Dbh+/− littermates) was “dramatically compromised”. The “numbers of circulating progenitors after G-CSF” value in test [1] (Lepr(db/db) vs Lepr(+/db) mice, human G-CSF 250 μg/kg/day, n=5) was “no difference”. In addition, in test [1] (Rag 1−/− and IL7Rα−/− mice, data not shown), the “circulating CFU-Cs elicited by G-CSF” value is “elicited at levels similar to those of wild-type mice”. Further, the “appearance of bone-lining osteoblasts” value with bone lining osteoblasts was “flattened appearance with shorter projections”.
